The results in this text go back to publication PMC12719032, “Structural and biophysical insights into RomR, MglB, and MglC interactions involved in regulating cell polarity in Myxococcus xanthus” (The Journal of Biological Chemistry, 2025).

Sequences and labels used below:
B1: MglC (mutual gliding-motility protein C) (natural protein, M. xanthus, UniProt Q1D0B6 1-120, looked up)
chain: MSFRTHLESVVNQVEGALACSVMGFDGISVDTFQKDESAELDLNGAWVEYANLLTQLRNAAETLKTGTVSEVSVNSEKVLTVMRLVSPDYFLVLALHADGNFGKGRYVLRVTAPKVRAEL
notes: MglC of Myxococcus xanthus (DSM no. 16526, type strain), Uniprot ID Q1D0B6; Homodimer by ASEC and SEC-SAXS; source: E. coli Rosetta (DE3), purified (Ni-NTA, SEC)
B2: RomR^371-420 (C-terminal helix of RomR, residues 371-420) (domain or fragment, M. xanthus, UniProt Q1D3Z1 371-420, looked up)
chain: DGGEALLREALSKASREVIEKIAWEVVPQLAETIIREELERLIKDRETQH
notes: synthetic gene from Invitrogen, cloned in pET-Duet-A with a TEV site; no tag cleavage is described; Trimer by SEC-SAXS; also called RomR C-terminal helix; helical domain of RomR; source: E. coli Rosetta (DE3), purified (Ni-NTA, SEC); not shown: His tag, N-terminal, kept

The target of data set [1] is RomR^327-420 (C-terminal region of RomR, residues 327-420) (M. xanthus). The data set can be described thus: ITC; MicroCal Auto-iTC200; 50 μM RomR^327-420/RomR^371-420 in the cell titrated with 500 μM MglC; 30 injections; one-site model; triplicate.
Data set [2] has as its target B2. The description is as above. As to conditions: both partners purified.
The target of data set [3] is RomR^327-420 (C-terminal region of RomR, residues 327-420) (M. xanthus). The data set can be described thus: BLI; Octet RED 96; RomR^327-420/RomR^371-420 immobilised on AR2G sensors by EDC/NHS; MglC in solution; 20 mM HEPES pH 8.0, 150 mM NaCl, 10% glycerol; 1:1 binding model. In general terms: Biolayer interferometry detects binding as a change in optical thickness at a sensor tip.

Data set [4] concerns the molecule itself. The data set can be described thus: SEC-SAXS; BM29, ESRF; Advance BioSEC 300 column; 20 mM Hepes pH 8.0, 150 mM NaCl, 10% glycerol; Mw from Porod volume, fits of models to the scattering data. Background: In gel filtration, larger molecules generally elute earlier.
Data set [5] concerns the target T1, MglB-MglC complex (preformed) (M. xanthus, UniProt Q1DB03 1-159; Q1D0B6 1-120).
T1 construct: MglB of Myxococcus xanthus, Uniprot ID Q1DB03; as m7; MglC of Myxococcus xanthus, Uniprot ID Q1D0B6; as m1; also called MglBC; source: purified proteins from E. coli Rosetta (DE3), MglB and MglC premixed in a 2:1 ratio; copies: 4 + 2
T1 sequence (looked up) 1: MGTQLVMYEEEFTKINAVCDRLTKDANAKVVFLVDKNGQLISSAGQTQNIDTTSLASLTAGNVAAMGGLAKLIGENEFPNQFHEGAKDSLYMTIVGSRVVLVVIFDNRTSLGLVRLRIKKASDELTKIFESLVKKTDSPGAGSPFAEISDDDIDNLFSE
T1 sequence (looked up) 2: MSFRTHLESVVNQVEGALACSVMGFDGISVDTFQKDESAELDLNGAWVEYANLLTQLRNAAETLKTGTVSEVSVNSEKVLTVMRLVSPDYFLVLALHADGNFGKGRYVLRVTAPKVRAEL
The data set can be described thus: ITC; MglB and MglC premixed 2:1; 25 μM of the complex in the cell titrated with 300 μM RomR^371-420; one-site model; triplicate. To be noted: both partners purified. A general note: Isothermal titration calorimetry measures the heat released or taken up as one component is titrated into another.

The target in data set [6] is B1. Description: ITC; MicroCal Auto-iTC200; 50 μM RomR^327-420/RomR^371-420 in the cell titrated with 500 μM MglC; 30 injections; one-site model; triplicate. To be noted: both partners purified.
The target in data set [7] is B1. The data set can be described thus: BLI; Octet RED 96; RomR^327-420/RomR^371-420 immobilised on AR2G sensors by EDC/NHS; MglC in solution; 20 mM HEPES pH 8.0, 150 mM NaCl, 10% glycerol; 1:1 binding model. As to conditions: both partners purified.
Data set [8] addresses T1, MglB-MglC complex (preformed). The data set can be described thus: BLI; Octet RED 96; RomR^371-420 immobilised on AR2G sensors by EDC/NHS; MglB-MglC complex in solution; 20 mM HEPES pH 8.0, 150 mM NaCl, 10% glycerol; 2:1 (heterogeneous ligand) model and steady state analysis. To be noted: both partners purified.

In general, Kd refers to a measure of binding affinity in units of concentration. A higher Kd goes with a looser complex. In general, stoichiometry N refers to a count of units in the complex or per binding partner. What is called koff is a measure of how fast the partners let go of each other. In general, kon refers to the rate constant with which the complex forms. Low readings indicate slower complex formation, high ones faster complex formation. In data set [1], B1 returned a Kd of 4.2 nM and a stoichiometry N of 0.67. In data set [2], the dH is -2.59 kcal/mol and the “stoichiometry N” value was 0.65. In data set [3], this molecule came in with a Kd of 5.5 nM, a koff of 0.000805 s⁻¹ and a kon of 146000 M⁻¹ s⁻¹. In addition, the “stoichiometry N” value in data set [4] was 2.

Take B2: in data set [5], the Kd was approximately 150 nM and the dH is -6.07 kcal/mol. Also, in data set [6], the Kd came out at 2.6 nM. Also, the “stoichiometry N” value in data set [4] was 3. In data set [7], the Kd was determined as 2.8 nM, the koff stood at 0.000652 s⁻¹ and the kon turned out to be 228000 M⁻¹ s⁻¹. This molecule also showed a Kd in data set [8] of 280 nM.
